From paper PMC13557712, “Nim1-related kinases regulate septin organization and cytokinesis by modulating Hof1 at the cell division site” (eLife, 2026)

Target: T1, GST-Hof1-N-terminus (1–350 aa) (S. cerevisiae, UniProt Q05080 1-350)
T1 construct: Hof1, S. cerevisiae, N-terminal fragment with the F-BAR domain, residues 1-350, amplified from genomic DNA and cloned into pGEX-5X1; also called GST-Hof1^F-BAR; GST-Hof1^(N (1–350)); source: E. coli BL21-DE3, purified on glutathione Sepharose 4B and kept on the resin; not shown: GST, N-terminal, kept
T1 sequence (looked up): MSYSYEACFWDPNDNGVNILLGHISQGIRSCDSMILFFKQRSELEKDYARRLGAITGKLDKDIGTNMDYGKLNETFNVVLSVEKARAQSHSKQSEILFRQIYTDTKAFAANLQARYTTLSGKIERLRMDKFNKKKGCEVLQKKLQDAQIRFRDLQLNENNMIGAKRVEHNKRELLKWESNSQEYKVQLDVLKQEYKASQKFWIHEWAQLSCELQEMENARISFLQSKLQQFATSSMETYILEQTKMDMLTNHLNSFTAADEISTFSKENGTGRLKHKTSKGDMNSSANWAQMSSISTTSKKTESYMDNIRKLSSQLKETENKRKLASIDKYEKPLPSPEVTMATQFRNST
Assay: pull-down; GST-Hof1 (1-350) (~3 µg) on glutathione beads mixed with ~1 µg 6His-bdSUMO-Gin4-KA1; PBS, 0.2% NP-40, 1 hr at 4°C; washed with PBS, 1% NP-40; western blot with anti-His and anti-GST
Conditions: both partners purified

B1: 6His-bdSUMO-Gin4-KA1 (1003–1142 aa) (domain or fragment, S. cerevisiae, UniProt Q12263 1003-1142, looked up)
chain: GSQAKDHSKDHLKEHKQDKNTAIGNGSFFRKFSKSSDKTMELYAKISAKQLFNGLEKLLRGWTQYGLKNIKSHPNNLTLTGKLSSDNIFSLRSTLFEVNIYPRGKMSVVQFKKVSGSFKAVKKLVNEVENVLNKEGVLQK
notes: also called 6xHis-bdSUMO-Gin4^KA1; source: E. coli BL21-DE3, purified (Ni-NTA, buffer exchange); not shown: His6, N-terminal, kept; bdSUMO, N-terminal, kept
  binding result: binds
